Data on 2 sequences can be found in patent US20150359911.

The target in this series is Integrin alpha-v beta-3 (UniProt P06756+P05106). The experiment in a line: filter. The note with it: BzdU replaces dT in the extended strand, HEPES, NaCl, KCl, MgCl2 buffer, 37 C.
Integrin alpha-v beta-3, sequence (P06756 31-992, chain 1 of 2): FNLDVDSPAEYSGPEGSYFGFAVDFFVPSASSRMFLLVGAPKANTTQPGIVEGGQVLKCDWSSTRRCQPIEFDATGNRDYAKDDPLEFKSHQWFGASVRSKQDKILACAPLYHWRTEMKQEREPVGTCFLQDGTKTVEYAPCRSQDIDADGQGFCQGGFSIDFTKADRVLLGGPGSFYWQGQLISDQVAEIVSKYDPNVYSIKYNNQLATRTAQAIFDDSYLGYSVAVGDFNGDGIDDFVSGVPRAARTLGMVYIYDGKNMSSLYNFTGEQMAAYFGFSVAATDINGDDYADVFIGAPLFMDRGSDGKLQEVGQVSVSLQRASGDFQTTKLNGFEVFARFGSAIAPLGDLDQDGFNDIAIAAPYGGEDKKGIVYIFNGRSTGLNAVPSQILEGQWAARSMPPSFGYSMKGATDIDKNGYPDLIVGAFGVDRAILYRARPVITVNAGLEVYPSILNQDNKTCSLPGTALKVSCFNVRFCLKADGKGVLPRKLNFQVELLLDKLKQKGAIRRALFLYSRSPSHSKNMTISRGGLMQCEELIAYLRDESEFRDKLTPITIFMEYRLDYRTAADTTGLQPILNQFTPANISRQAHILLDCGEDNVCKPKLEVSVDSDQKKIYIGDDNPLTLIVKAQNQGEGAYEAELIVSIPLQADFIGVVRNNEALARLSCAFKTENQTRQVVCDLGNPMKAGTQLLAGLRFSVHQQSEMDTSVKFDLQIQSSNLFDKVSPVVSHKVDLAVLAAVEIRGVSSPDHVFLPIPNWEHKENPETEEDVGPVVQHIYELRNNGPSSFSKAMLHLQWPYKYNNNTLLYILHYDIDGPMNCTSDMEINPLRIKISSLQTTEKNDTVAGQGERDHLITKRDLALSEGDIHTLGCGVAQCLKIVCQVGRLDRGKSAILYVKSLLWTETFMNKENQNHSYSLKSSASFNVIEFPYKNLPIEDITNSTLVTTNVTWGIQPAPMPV
Integrin alpha-v beta-3, sequence (P05106 27-718, chain 2 of 2): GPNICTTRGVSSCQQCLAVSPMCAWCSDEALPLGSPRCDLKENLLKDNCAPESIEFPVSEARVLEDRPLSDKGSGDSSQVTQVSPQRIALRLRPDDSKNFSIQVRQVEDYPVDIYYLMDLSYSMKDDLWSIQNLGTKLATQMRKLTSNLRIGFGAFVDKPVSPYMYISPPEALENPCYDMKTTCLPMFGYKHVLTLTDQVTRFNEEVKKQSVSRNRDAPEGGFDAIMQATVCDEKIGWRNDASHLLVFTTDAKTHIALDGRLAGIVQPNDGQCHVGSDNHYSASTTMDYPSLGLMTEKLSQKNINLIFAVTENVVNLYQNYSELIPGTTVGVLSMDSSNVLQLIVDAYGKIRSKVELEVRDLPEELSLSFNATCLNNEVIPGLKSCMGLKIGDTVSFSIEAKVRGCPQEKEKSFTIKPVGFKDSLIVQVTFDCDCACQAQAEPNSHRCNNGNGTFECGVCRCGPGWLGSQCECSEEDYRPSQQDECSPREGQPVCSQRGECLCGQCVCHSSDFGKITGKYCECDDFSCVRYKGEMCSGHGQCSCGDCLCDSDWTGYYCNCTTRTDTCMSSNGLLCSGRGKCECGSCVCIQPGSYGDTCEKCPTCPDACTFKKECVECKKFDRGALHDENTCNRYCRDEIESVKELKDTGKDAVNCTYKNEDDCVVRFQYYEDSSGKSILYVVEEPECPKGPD

By Kd is commonly meant the free concentration of one partner at which half of the binding sites on the other are occupied at equilibrium, for simple one-to-one binding. Lower therefore signals tighter binding. For the setting “n = random N40 [n positions 19 = modified dU], Bmax 3.23E-11, essentially no binding”, “TCAGCCGCCAGCCAGTTCTGACCAGAGCACCACAGAG [Starting benzyl-dU random library]” returned a Kd of 6.5 µM.
“TCAGCCGCCAGCCAGTTCTGACCAGAGCACCACAGAG [Round 8 SELEX pool]” had a Kd (n = selected N40 region [n positions 19 = modified dU], Bmax 0.45) of 0.0433 µM.
